# Source: US6936457
# B1: α-bungarotoxin, P60615 22-95 (peptide)
# chain: IVCHTTATSPISAVTCPPGENLCYRKMWCDAFCSSRGKVVELGCAATCPSKKPYEEVTCCSTDKCNPHPKQRPG
# modifications: not checked
# Target: human neuronal nicotinic acetylcholine receptor α7 subunit (human), P36544
# Sequence (P36544 23-502 limits assumed): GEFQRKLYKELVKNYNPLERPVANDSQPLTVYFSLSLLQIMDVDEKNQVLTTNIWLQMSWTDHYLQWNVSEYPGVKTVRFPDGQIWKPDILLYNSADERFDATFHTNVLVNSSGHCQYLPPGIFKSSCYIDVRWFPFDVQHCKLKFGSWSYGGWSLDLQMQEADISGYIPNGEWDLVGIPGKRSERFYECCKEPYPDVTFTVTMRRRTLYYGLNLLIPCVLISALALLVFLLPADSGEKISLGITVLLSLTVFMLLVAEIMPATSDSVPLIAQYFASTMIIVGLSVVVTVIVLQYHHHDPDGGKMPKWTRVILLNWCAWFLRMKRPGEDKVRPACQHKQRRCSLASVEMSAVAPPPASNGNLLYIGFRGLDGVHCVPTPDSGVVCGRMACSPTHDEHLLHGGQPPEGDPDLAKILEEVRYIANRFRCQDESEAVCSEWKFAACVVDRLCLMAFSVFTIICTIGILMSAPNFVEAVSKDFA
binder,measurement,value
B1,IC50,3 nM
same,percent of [3H]-MLA binding displaced,65%
